{"source": "the DeepSol protein solubility set"}
{"experiment": "soluble on expression in E. coli; label from the status in PepcDB or PDB records"}
{"sequence": "MSLPVKNLRHLPKAHLHLHLEGAMRPATLTEFCERYKIKRPSDTRGKQFSNFAAFNEVYRAASDSIRTRQDLARVIQEVAEDAAKDGATWIEPAFDADRYTVLRADKSLRLFETPYEGWLFALKAARNASEKTGVGISFISAIDRTRPIDQANERAKLTTNLIASQKHQITAKNINGGEPYAGIIGLGLHGNEEGYPPEIFAEAFQIVTKKTEALSIPHAGEIAPTPGKGPESVEKAIDILSASRIQHGVLAIQDEVLIEKIKEKNICLDVCPSSNIQLSVFPNIQAHPLPLLIESGVSCSLGSDDPLLFGPSLLDEFELCREQMRLSDNTLAQLARNSFKYSGAPKKIVEQGLRDIDTWLNEGHHHHHH", "soluble on expression in E. coli": "soluble"}
{"sequence": "MYDFKKINNLRGIERETLRVTDCGNLATSNHPDGLGHKLTNNSITVDFSENLLELITKPHDSIDKAIGELYQLSAFTLDNMHSDEIILNTSMPLSANDNDIQEADFGSSNSGRMKRVYRKGLSARYGKIMQIISGIHYNFSFDKDLISNIATNKQVSISDIYFDVLNNYFEFMWLLPYLFGASPICAKTSVKNKPDYLSVLDDKFYVGEYATSLRMSDLGYTSPAQKDLAISYDNVKAYVKDLIQATDDTFADYKRIGLYNSQGQRIQLNDGILQIENEYYSAIRPKQIAKRGERPACALYNRGVEYVEVRVLDVDPFEPVGISKDTALFVEVMLMTCLDKDAKKYHKDIIKQAKQNLTAVAIQGRNPQLKLKKLDDDSEILLKDYALELFDEIEAVAKKMPKEYLDAVEIQKRKVLDISQTPSAKIIELARQHGYKKFILDISRRVSQQFRSYELPAAIVAKLKDQAGQSVAAEKELVANDKISLDEYINRYYKSSKGCC", "soluble on expression in E. coli": "not soluble"}
{"sequence": "MSEYPILPSTLIPADPRFGCGPSKVRPAQLNAIVNAGADVIGTSHRQPAVKNIVGSIREGLSSLFSLPDGYEIVLSLGGATAFWDAATFGLIEKKSGHLTFGEFSGKFAKASAQAPWLDEPTIISAEPGDTPTPVAMEGCDVIAWAHNETSTGAMVPVIRPENSDGQLVAIDATSGAGGLPVDMHNADVYYFSPQKCFASDGGLWLAAMSPAALERIEKINASDRFIPAFLNLQTAVDNSRKNQTYNTPAVGTLLMLENQVEWMNANGGLDAMVERTTANSSALYEWAEKRAETTPYVTDPAKRSLVVGTIDFDDSIDAAALAKVLRANGILDVEPYRKLGRNQLRIGMFPAIDTADMDTLTAAIDYVLDNGFAQA", "soluble on expression in E. coli": "not soluble"}
{"sequence": "GPGSMEYNARYQVSPRDQFLRKVVVVPYGVLGMQMTLQGGLVRAGSEPDESTFIVDPANLRHIFTTAVGATGASGAIYNMLGLRGPFPDEVVQAISRVCDTKFYKYGERANVIHVVDPDFREGAWSEREAAVELSRAYRNVFHEFVRGDGDVLRVPPLSSGVLSGSLYNQLPIITQSAVAMAFEQLHTFDREYLLRRDKQVELCVFMNREWDMYQNVFKNCTQPSKL", "soluble on expression in E. coli": "soluble"}
{"sequence": "MLLELIPLLGIHFVLRTARAQSVTQPDIHITVSEGASLELRCNYSYGATPYLFWMERTVEEAFILLVCLKPWRVASSLEKKEKEDESFQLLLGSRYNVLEAHCLLPLIRWLTSGDSLLSAQPHCPQEL", "soluble on expression in E. coli": "not soluble"}
{"sequence": "MDWVRLLSRLVQAESLPGEEGEAAGLLLEALKGMGLEATLDEAGNIEALLGEKGPEVVLTGHMDVVPVGDPARWPYPQGAVAEGSLWGRGAVDMKGSLVAMLLALETLARGALKGRVRFLAVVQEEVGGLGSRFAAERLSPLAFVLGEPSSGRLMRGHRGRRKVWADFEGRETHAALAGPENPLFDLGAYLLALQDLPLPPGVKLTPTRVDTHPGARNQTPGVVRLYLDVRYEPEADLDGLLAALRTLGPASVYLPEEERASGEVRMTLPALWPPYRLPEDHPLLQAALQALGQEEAGLWPFTTDAPYLGAKAPVLGLGPGDPALAHTPMEHVPLRAVEEAAQAYVRLVEALWNAD", "soluble on expression in E. coli": "soluble"}
{"sequence": "MIYKNRLLKTIRYNVKATTISPLAIRDDEDNLKIDQLTGKVYIPGSSVAGAFRNYYENYIDKNSNENFNELFGGQKTGMSQIVFYDGYLVNDYVKEMISSRPGIKMDLKRMTVEVSDDAKKSGKKFKRRFLNEGLTFEFVFELNNYEDDAGKFEEKQRKFEELLKAFSIGDISLGSNKMIGYGRFRVDSISKSVFDFTNINDLLKYMLMETDSTEITQDILGREQETSKVRFKIKGKTVTPLLVKDETVRLSNESDGINIKDSRGNYIIPGSSIKGVIRSRAERLHRTFPCIGEEILTNIFGIESKKDDDGHISRLSCFDAVVKNPNKGIYNKIKIDYFTGGVMQGALMNDEVVMGDVEIECTFNTSGLNDYKREIGLLLLVLRDLCKEDLSIGSGYAVGRGYIKAETLELYDGEKLVLDFKSPNREVLKRFDSYISSLMNVG", "soluble on expression in E. coli": "soluble"}
{"sequence": "VTTRQEKAAQTRRDLLDAARVVFERNGYLNATITDITTEAGKAAGSFYNHFDGKEALLLALADDIGDDADALITTSPDDLRNLGPHLAVFWQLQSRHRPVMAALRDAALVDPEFAQRMHDFGI", "soluble on expression in E. coli": "not soluble"}
{"sequence": "MVKQISVFVENKPGRLAAVTEVLMKHNINIRAFTIADAGDFGIIRMVVDKTDEAYQALKEAGFTVRLTNVLAVEVEDKPGALHRIAKALGDAGVNIDYVYAFTSEKHKALIIFRVDDREKAKEVLEKLGVLFKGEIN", "soluble on expression in E. coli": "not soluble"}
{"sequence": "MEIKLEEILKKQPLYSGKAKSIYEIDDDKVLIEFRDDITAGNGAKHDVKQGKGYLNALISSKLFEALEENGVKTHYIKYIEPRYMIAKKVEIIPIEVIVRNIAAGSLCRRYPFEEGKELPFPIVQFDYKNDEYGDPMLNEDIAVALGLATREELNKIKEIALKVNEVLKKLFDEKGIILVDFKIEIGKDREGNLLVADEISPDTMRLWDKETRDVLDKDVFRKDLGDVIAKYRIVAERLGLL", "soluble on expression in E. coli": "soluble"}
{"sequence": "MTVSTPEQHEQRASHDASEGKHNVCQGRLAALADAAVSEKLGALPGWQLLDMRLSRAFQCTNFDQSIDFMNRVASIANDINHHPDIAVLDKRSVRVTAWTRKLGYLTDIDFDLAASVEAMYATEFADRPAR", "soluble on expression in E. coli": "soluble"}
{"sequence": "MKYQVKQVAEISGVSIRTLHHYDNIELLNPSALTDAGYRLYSDADLERLQQILFFKEIGFRLDEIKEMLDHPNFDRKAALQSQKEILMKKKQRMDEMIQTIDRTLLSVD", "soluble on expression in E. coli": "soluble"}
{"sequence": "MAHHHHHHMLRCSCARRRGVYHNAPSVYPFVKPFHDTPYDQDRGRHDSVGQRYRKNSWPEWMDNGADGTGYGIGLHRTHPLSRLRGNLKRSPSHVPRVLGMMIQGVWHKSGVKLYFRGGKPPNPSVHPYLTGEPCPLYGWKVTDESVIRQFNMPSIDGTNFRYKPYVALQERKIMGVQVPSDSVSLASGRTTESKPLAKRLFFWR", "soluble on expression in E. coli": "not soluble"}
{"sequence": "MGSDKIHHHHHHPVAIIGGGPVGLAAAAHLAVRDVPFVLFEGKSEVGASILEWKHVSLFSPWKYNIDRAAKSLLEKESWKEPAGDRLPTGEQLVRDYLQPLAETKALKPYIYTNAPVQSIYRKGIDKIKDHNRENTPFIIRYKQDNDQKTLRARAVIDATGTWFSPNPIGAGGVPAIGEEEAKDSIYYGIPDVKGKDRSRYEGKTILVVGSGHSAIHTLLDLAQLKEAAPSTRILWAIRRNSPNGLFGGGQEDALPARGQLGLALEALLSKQKVELISSFEMEQIDRVEGRLSVVGVQNESPISLPLVDEIVANTGARPTVDYHRDIRYQLDSKLESVPALAPLIDPNIHSCGTVRPHGEKELRQPEKNFYIAGVKSYGRAPTFLLATGYEQVRSIVASLAGSKKEAERVELQLPKTGVCKSDFLAKRSCC", "soluble on expression in E. coli": "not soluble"}
{"sequence": "MSLADRLLDIKRIYHEPGIERFPRARAVLERYPDAERVEVLSHQAIPGLYGNEGNVEDWVRNKREVMVIGEKKSLSARRNERSSDWIAPSTANGCAMACSYCYVPRRKGYANPITVFANIEKITGYLERHAARQGAKPEPNQCDPIDWVYDIGENSDCSADAMVSDNVRDLVDLFGRIPNAKASFATKLVNRDLLTYEPRGGTRVRFSLMPAETSRLVDVRTSKISDRIAAIDDFVEAGYEVHLNFSPVIVHENWIADWADLLEQIADQTNDRTRRQLAAEVIFLTHNEGLHDVNLGWHPKGEELLWRPDLQQLKRSQSGQWNVRYKSPWKGKWVQQMTDLVADRLPDCRIRYAEGHHHHHH", "soluble on expression in E. coli": "not soluble"}
{"sequence": "HFASTRSFLDTVKLDHAIWKNNIYRLLQSGSFGETVNSHSECRLGQWYYRGDGKAYSQLRSYAQLEAPHKGVHDSGRDAMNHAKSGNMAGMVTSINSMEDTSEQVVIHIDRLMDEIIAN", "soluble on expression in E. coli": "not soluble"}
{"sequence": "MSLVLMIVSGRSGSGKSVALRALEDMGFYCVDNLPVVLLPDLARSLADRNISAAVSIDVRNMPESPEIFEQAMQNLPECFSPQLLFLDADRNTLIRRYSDTRRLHPLSSKNLSLESAIDEESDLLEPLRSRADLIVDTSEMSVHELAEMLRTRLLGKRERELTMVFESFGFKHGIPIDADYVFDVRFLPNPHWDPKLRPMTGLDKPVAAFLDRHTEVHNFIYQTRSYLELWLPMLETNNRSYLTVAIGCTGGKHRSVYIAEQLADYFRSRGKNVQSRHRTLEKRKSEGGSHHHHHH", "soluble on expression in E. coli": "soluble"}
{"sequence": "MTRPKLELSDDEWRQKLTPQEFHVLRRAGTERPFTGEYTDTTTAGIYQCRACGAELFRSTEKFESHCGWPSFFDPKSSDAVTLRPDHSLGMTRTEVLCANCDSHLGHVFAGEGYPTPTDKRYCINSISLRLVPGSV", "soluble on expression in E. coli": "soluble"}
{"sequence": "MGLTVEAADEKGLTLRLPYSQAIIGNPESGVVHGGAITTLMDTTCGISTVCVLPDFEICPTLDLRIDYMHPAEPHKDVYGFAECYRVTPNVIFTRGFAYQDDPGQPIAHVVGAFMRMGLEHHHHHH", "soluble on expression in E. coli": "not soluble"}
{"sequence": "ASMTTPCITILSGHFPKETIYARKTKELVEEYCSIHGYNFYYEESEPLETEEHALHFRRSWIIQQAAEKFPSTEWFLWLDSDVYVNPKNKNKPITSFIDLSDPNILYHTFHEAPWGSYPINTGVKFVHKDALEIEKIVWSLRNEAPWNTFPYEQKTVYEYVFPRIPGRYIVHDPYTLNCIVKAYPEHVKDALFVHMCGTSRAERDEHMEMVAT", "soluble on expression in E. coli": "soluble"}
{"sequence": "MSELWYTEKQTKNFGITMKVNKTLHTEQTEFQHLEMVETEEFGNMLFLDGMVMTSEKDEFVYHEMVAHVPLFTHPNPEHVLVVGGGDGGVIREILKHPSVKKATLVDIDGKVIEYSKKFLPSIAGKLDDPRVDVQVDDGFMHIAKSENQYDVIMVDSTEPVGPAVNLFTKGFYAGIAKALKEDGIFVAQTDNPWFTPELITNVQRDVKEIFPITKLYTANIPTYPSGLWTFTIGSKKYDPLAVEDSRFFDIETKYYTKDIHKAAFVLPKFVSDLIKLEHHHHHH", "soluble on expression in E. coli": "soluble"}
